Experimental data from IntAct's records for PubMed 29433439.

B1: Phosphocholine transferase AnkX (Legionella pneumophila subsp. pneumophila), Q5ZXN6 (parent)
chain: MVKIMPNLPGLYFLQAYPSEEIWRLFVDGRFWSKENGWRGYESREPGCLNAALESLCSIALQVEKSGEEFELSVDLIKRIHKKCGKKVEELQEKNPGELRTDEPVSFGIPAGRASIKGIEEFLSLVFLTEGGAEFGPGKAGPFGPRFDKNYFKNLNPEQIPDLAKQIYFDMCKYGHSNTNHFYLAVMKNVDVYLEKITQSYNKEIKTAETLDEKLKIIVKHIRMYEVLHPFRDANGRTFVNNLLNILLMQQGLPPATFYEPNVFDLYSAEELVVVVKEAIFNTVEIIEQSKRKTPITLYGYHSSLEEQTKFRDMLDSPSYEKIKHMDFSDLNPEKLHLKTQKCLSSLNEQYPLHRGAIYLSDPGEIKLLLSNRNESQINQQIEQGAPPIYVGKTPAHLAVISGNMAMLDELIAKKADLSLQDYDGKTALHYAAECGNMQIMGKILKVVLSQEDAIKVLNIKDNHGKTAFHYAAEFGTPELISALTTTEVIQINEPDNSGSSAITLAYKNHKLKIFDELLNSGADISDELLDAIWARKDKETLGKIIAKNEKILLNKEAFRIAISLGSVSLVKKFLRAGVDIDIPLTKDKATPLMLSINSGNPKLVSYLLKKGANTRLTDTSGNSVLHYVFYSKAENREALANIITEKDKKLINQPNANGNPPLYNAVVVNDLKMATILLEMGARVDFEDRLGNNILHSAMRRCDLPIILDIVKKDSTLLHKRNSERRNPFHQALHEMHTFPSSKETEEIHFMNLSDLLLKEGVDLNKKDIKGKTILDIALSKQYFHLCVKLMKAGAHTNISSPSKFLKNSDANSILERPFKFKNDLKKELDNNPLIAMAQINDLYVQIKNNRIRTPTGYAPKEGVSFFKGKSNDAKAHDEVLSVLKELYDSKLTEMLGNLPGEGLEEIKRSQKFFDGELKLLIKNQDISRKVDKKSIQEAVGTSLKLKW
partner: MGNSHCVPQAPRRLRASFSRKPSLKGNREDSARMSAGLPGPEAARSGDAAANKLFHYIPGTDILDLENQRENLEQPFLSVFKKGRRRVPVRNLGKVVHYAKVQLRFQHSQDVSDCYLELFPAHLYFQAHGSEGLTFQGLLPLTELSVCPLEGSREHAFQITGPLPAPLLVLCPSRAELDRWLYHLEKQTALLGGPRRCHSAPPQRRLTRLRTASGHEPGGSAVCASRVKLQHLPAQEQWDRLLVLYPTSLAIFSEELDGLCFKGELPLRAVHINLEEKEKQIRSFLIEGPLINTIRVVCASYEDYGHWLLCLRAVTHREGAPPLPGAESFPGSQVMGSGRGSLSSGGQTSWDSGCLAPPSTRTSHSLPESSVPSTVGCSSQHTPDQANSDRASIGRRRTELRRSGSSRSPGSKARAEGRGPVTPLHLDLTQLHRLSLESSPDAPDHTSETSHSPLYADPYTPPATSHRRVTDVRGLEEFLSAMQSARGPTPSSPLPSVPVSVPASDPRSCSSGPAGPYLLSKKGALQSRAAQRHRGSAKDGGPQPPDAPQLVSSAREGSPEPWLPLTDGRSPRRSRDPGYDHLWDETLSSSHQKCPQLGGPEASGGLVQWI

Variants of: B1
Details: with pkhn1_human PLEKHN1, Q494U1

| Variant | effect of a mutation on the interaction |
| --- | --- |
| H229A | decreasing interaction |
